B1: human CAD ATC domain bearing P2186S (domain or fragment, UniProt P27708 1917-2225, looked up)
chain: LLHSLVGQHILSVQQFTKDQMSHLFNVAHTLRMMVQKERSLDILKGKVMASMFYEVSTRTSSSFAAAMARLGGAVLSFSEATSSVQKGESLADSVQTMSCYADVVVLRHPQPGAVELAAKHCRRPVINAGDGVGEHPTQALLDIFTIREELGTVNGMTITMVGDLKHGRTVHSLACLLTQYRVSLRYVAPPSLRMPPTVRAFVASRGTKQEEFESIEEALPDTDVLYMTRIQKERFGSTQEYEACFGQFILTPHIMTRAKKKMVVMHPMSRVNEISVEVDSDPRAAYFRQAENGMYIRMALLATVLGRF
B2: human CAD dihydroorotase (DHO) domain, wild type (domain or fragment, UniProt P27708 1456-1846, looked up)
chain: MTSQKLVRLPGLIDVHVHLREPGGTHKEDFASGTAAALAGGITMVCAMPNTRPPIIDAPALALAQKLAEAGARCDFALFLGASSENAGTLGTVAGSAAGLKLYLNETFSELRLDSVVQWMEHFETWPSHLPIVAHAEQQTVAAVLMVAQLTQRSVHICHVARKEEILLIKAAKARGLPVTCEVAPHHLFLSHDDLERLGPGKGEVRPELGSRQDVEALWENMAVIDCFASDHAPHTLEEKCGSRPPPGFPGLETMLPLLLTAVSEGRLSLDDLLQRLHHNPRRIFHLPPQEDTYVEVDLEHEWTIPSHMPFSKAHWTPFEGQKVKGTVRRVVLRGEVAYIDGQVLVPPGYGQDVRKWPQGAVPQLPPSAPATSEMTTTPERPRRGIPGLPD
modifications: carboxylated lysine K1556
B3: human CAD DHO domain bearing W1581R (domain or fragment, UniProt P27708 1456-1846, looked up)
chain: MTSQKLVRLPGLIDVHVHLREPGGTHKEDFASGTAAALAGGITMVCAMPNTRPPIIDAPALALAQKLAEAGARCDFALFLGASSENAGTLGTVAGSAAGLKLYLNETFSELRLDSVVQWMEHFETRPSHLPIVAHAEQQTVAAVLMVAQLTQRSVHICHVARKEEILLIKAAKARGLPVTCEVAPHHLFLSHDDLERLGPGKGEVRPELGSRQDVEALWENMAVIDCFASDHAPHTLEEKCGSRPPPGFPGLETMLPLLLTAVSEGRLSLDDLLQRLHHNPRRIFHLPPQEDTYVEVDLEHEWTIPSHMPFSKAHWTPFEGQKVKGTVRRVVLRGEVAYIDGQVLVPPGYGQDVRKWPQGAVPQLPPSAPATSEMTTTPERPRRGIPGLPD
B4: human CAD DHO domain bearing S1538A (domain or fragment, UniProt P27708 1456-1846, looked up)
chain: MTSQKLVRLPGLIDVHVHLREPGGTHKEDFASGTAAALAGGITMVCAMPNTRPPIIDAPALALAQKLAEAGARCDFALFLGAASENAGTLGTVAGSAAGLKLYLNETFSELRLDSVVQWMEHFETWPSHLPIVAHAEQQTVAAVLMVAQLTQRSVHICHVARKEEILLIKAAKARGLPVTCEVAPHHLFLSHDDLERLGPGKGEVRPELGSRQDVEALWENMAVIDCFASDHAPHTLEEKCGSRPPPGFPGLETMLPLLLTAVSEGRLSLDDLLQRLHHNPRRIFHLPPQEDTYVEVDLEHEWTIPSHMPFSKAHWTPFEGQKVKGTVRRVVLRGEVAYIDGQVLVPPGYGQDVRKWPQGAVPQLPPSAPATSEMTTTPERPRRGIPGLPD
B5: human CAD DHO domain bearing H1687R (domain or fragment, UniProt P27708 1456-1846, looked up)
chain: MTSQKLVRLPGLIDVHVHLREPGGTHKEDFASGTAAALAGGITMVCAMPNTRPPIIDAPALALAQKLAEAGARCDFALFLGASSENAGTLGTVAGSAAGLKLYLNETFSELRLDSVVQWMEHFETWPSHLPIVAHAEQQTVAAVLMVAQLTQRSVHICHVARKEEILLIKAAKARGLPVTCEVAPHHLFLSHDDLERLGPGKGEVRPELGSRQDVEALWENMAVIDCFASDRAPHTLEEKCGSRPPPGFPGLETMLPLLLTAVSEGRLSLDDLLQRLHHNPRRIFHLPPQEDTYVEVDLEHEWTIPSHMPFSKAHWTPFEGQKVKGTVRRVVLRGEVAYIDGQVLVPPGYGQDVRKWPQGAVPQLPPSAPATSEMTTTPERPRRGIPGLPD
B6: human CAD DHO domain bearing S1538L (domain or fragment, UniProt P27708 1456-1846, looked up)
chain: MTSQKLVRLPGLIDVHVHLREPGGTHKEDFASGTAAALAGGITMVCAMPNTRPPIIDAPALALAQKLAEAGARCDFALFLGALSENAGTLGTVAGSAAGLKLYLNETFSELRLDSVVQWMEHFETWPSHLPIVAHAEQQTVAAVLMVAQLTQRSVHICHVARKEEILLIKAAKARGLPVTCEVAPHHLFLSHDDLERLGPGKGEVRPELGSRQDVEALWENMAVIDCFASDHAPHTLEEKCGSRPPPGFPGLETMLPLLLTAVSEGRLSLDDLLQRLHHNPRRIFHLPPQEDTYVEVDLEHEWTIPSHMPFSKAHWTPFEGQKVKGTVRRVVLRGEVAYIDGQVLVPPGYGQDVRKWPQGAVPQLPPSAPATSEMTTTPERPRRGIPGLPD
modifications: carboxylated lysine K1556

One data set deals with the molecule itself. Kind of data set: SEC. In general terms: Size exclusion chromatography separates by hydrodynamic size, large species first.
The stoichiometry N is the number of molecules, sites or subunits per partner or assembly. On to B1, for which the “stoichiometry N” value came out at 3.

Another data set deals with the molecule itself. In words: SEC. The source holds these as a separate data set.
B2: the “stoichiometry N” value was 2.

B3: the “stoichiometry N” value is 2.

Take B4: the “stoichiometry N” value was 2.

With B5, the “stoichiometry N” value is 2.

On to B6, for which the “stoichiometry N” value was 2.

For the origin of these results see publication doi:10.1101/2024.07.30.605799 (bioRxiv, 2024).
